The subject of assay [1] is H3K4me3, H3K9me3 and H3K27me3. Particulars: previously demonstrated; cited from earlier work.
The target of assay [2] is GST-fusion CHD4 PHD2 (Homo sapiens, UniProt Q14839). Description: Pull-down of GST-CHD4 PHD2 by biotinylated histone peptides in the absence of 2. The assay is classed as binding. As to conditions: absence of 2, Western blot.
Assay [3] deals with CHD4 PHD2 finger (Homo sapiens, UniProt Q14839). As to conditions: read-out: Kd of CHD4 PHD2 for histone peptide; cited from earlier work.
CHD4 PHD2 finger, sequence (Q14839 449-496 limits assumed): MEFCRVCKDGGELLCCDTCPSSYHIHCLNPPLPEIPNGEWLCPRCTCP

GST-fusion CHD4 PHD2, sequence (Q14839 449-496 limits assumed): as above

For `O=S(=O)(O)c1cc2c(O)c(c1)Cc1cc(S(=O)(=O)O)cc(c1O)Cc1cc(S(=O)(=O)O)cc(c1O)Cc1cc(S(=O)(=O)O)cc(c1O)C2` [Compound 1, p-sulfonatocalix[4]arene], the “binding to trimethylated lysine peptides H3K4me3, H3K9me3 and H3K27me3” value in assay [1] is reported as “equally well”. As usually defined, the Kd is the free concentration of one partner at which half of the binding sites on the other are occupied at equilibrium, for simple one-to-one binding. Take “H3K4me3: biotinylated histone H3 peptide (residues 1–20) trimethylated at Lys4 [Compound H3K4me3]”: the “binding of GST–CHD4 PHD2 to biotinylated histone peptide” value in assay [2] was “significantly weaker”. For the same compound, the Kd in assay [3] is about 2000 µM.

As to “H3K27me3: biotinylated histone H3 peptide (residues 21–44) trimethylated at Lys27 [Compound H3K27me3]”, the “binding of GST–CHD4 PHD2 to biotinylated histone peptide” value in assay [2] was “no interaction”.
